Each molecule was assayed against T1, human prostate specific antigen (PSA) labelled with biotin (human, UniProt P07288 25-261, labelled with biotin using EZ-Link NHS-PEG4-biotinylation kit) (assay: Extension Array (160,000 members, 5 replicates), biotin-PSA, Streptavidin Cy5 detection).
T1 construct: Applied in solution at 100 ng/ml to the peptide arrays and detected with Streptavidin Cy5
T1 sequence (P07288 25-261 limits assumed): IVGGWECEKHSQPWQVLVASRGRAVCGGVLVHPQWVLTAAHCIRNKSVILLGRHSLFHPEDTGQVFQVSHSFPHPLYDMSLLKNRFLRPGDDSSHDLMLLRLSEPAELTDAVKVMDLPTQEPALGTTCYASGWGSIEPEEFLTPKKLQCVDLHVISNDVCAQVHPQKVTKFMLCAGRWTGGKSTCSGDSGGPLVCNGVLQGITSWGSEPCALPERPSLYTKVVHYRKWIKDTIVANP
Experimental: (§1) Binding Assay: PSA labelled with biotin using EZ-Link NHS-PEG4-biotinylation kit (Thermo Fisher Sci., Inc. Rockford, Ill.) was incubated in SecureSeal hybridization chamber (Grace Bio-Labs, Bend, Oreg.) at concentration 100 ng/ml in 1×TE binding buffer with 1% alkali soluble casein at 25° C. for 12 hrs. Array was washed 3× with 1×TE buffer and stained with Streptavidin Cy5 in 1× binding buffer with 1% alkali soluble casein at 25 C for 1 hr, and washed 3× with 1×TE buffer and finally with 0.1×TE buffer and scanned using a 2 micrometer MS200 scanner (Roche/Nimblegen, Madison, Wis.).
Two dominant F[QET]VY[LI] and W[QET]V[YH][LAV] clusters described above were related by having similar amino acids F or W at position 1 and V at position 3. To find other possible binder motifs we excluded sequences with these features from the 5-mer Array data and performed PEPLIB analysis with top 32 sequences from the remaining dataset as shown in FIG. 11. […] Four sequences, FEVYL (SEQ ID NO: 1), WTVYA (SEQ ID NO: 2), WEVHL (SEQ ID NO: 3), and RSILY (SEQ ID NO: 4), selected from the 5-mer Array were extended by all possible dimers at both N- and C-terminus using all 20 natural amino acids (×) to design Extension Arrays each of them consisting of 160,000 members synthesized in 5 replicates (Table 2). Top twelve sequences for each library selected by signal intensity of PSA binding were used to generate Logo plots shown in FIG. 12. […] For example, FEVYL motif (SEQ ID NO: 1) prefers exclusively P at the C-terminus, WTVYA motif (SEQ ID NO: 2) prefers acidic amino acid either D or E at the N-terminus and G at the C-terminus, whereas RSILY motif (SEQ ID NO: 4) prefers C at the C-terminus, an amino acid that was not present in the 5-mer arrays.
SEWTVYAGN: binds.
TGWEVHLGK: binds.
SCRSILYGQ: binds.
NGFEVYLPG: binds.

These molecules were tested against human prostate specific antigen (PSA) labelled with biotin (human) (UniProt P07288) (assay: 5-mer peptide microarray, biotin-PSA 100 ng/ml, Streptavidin Cy5 detection).
Sequence of human prostate specific antigen (PSA) labelled with biotin (human) (P07288 25-261 limits assumed): as above
FEVYL (peptide) showed a rank by binding signal to PSA (among 405 top sequences) of 1 rank.
Molecule WEVHL (peptide) has a rank by binding signal to PSA (among 405 top sequences) of 28 rank.
WTVYA (peptide) was tested, and the rank by binding signal to PSA (among 405 top sequences) was 3 rank.
With RSILY (peptide) the rank in the list of 405 sequences with the highest average signal intensity was 307 rank.

The molecules below were run against T1, human prostate specific antigen (PSA) … (assay: Double Substitution/Deletion Array, biotin-PSA, Streptavidin Cy5 detection).
Experimental: as §1
The top sequences selected from the Extension Array (Table 2, column 3) were used to design Double Substitution/Deletion Arrays as shown in column 4 of Table 2. Single and double substitution scan performed as described in Example 3 were used to optimize PSA binders to achieve highest signal intensity and confirm specificity of each amino acid in motif sequence (Table 2, column 5).
QSCRSILYGDG: binds.
GTGWEVHLGKG: binds.
GTGFEVYIPGA: binds.
ASEWTVYAGNK: binds.
